Target: T1, ADAMTS13 (Homo sapiens, UniProt Q76LX8)
T1 construct: tissue Gen-Probe GTI Diagnostics (ATS-13 kit calibrators, controls and proficiency samples); George King Biomedical Inc. (FACT, A-FACT, B-FACT plasmas) ATS-13; host or cells: plasma
T1 sequence (Q76LX8 75-1427): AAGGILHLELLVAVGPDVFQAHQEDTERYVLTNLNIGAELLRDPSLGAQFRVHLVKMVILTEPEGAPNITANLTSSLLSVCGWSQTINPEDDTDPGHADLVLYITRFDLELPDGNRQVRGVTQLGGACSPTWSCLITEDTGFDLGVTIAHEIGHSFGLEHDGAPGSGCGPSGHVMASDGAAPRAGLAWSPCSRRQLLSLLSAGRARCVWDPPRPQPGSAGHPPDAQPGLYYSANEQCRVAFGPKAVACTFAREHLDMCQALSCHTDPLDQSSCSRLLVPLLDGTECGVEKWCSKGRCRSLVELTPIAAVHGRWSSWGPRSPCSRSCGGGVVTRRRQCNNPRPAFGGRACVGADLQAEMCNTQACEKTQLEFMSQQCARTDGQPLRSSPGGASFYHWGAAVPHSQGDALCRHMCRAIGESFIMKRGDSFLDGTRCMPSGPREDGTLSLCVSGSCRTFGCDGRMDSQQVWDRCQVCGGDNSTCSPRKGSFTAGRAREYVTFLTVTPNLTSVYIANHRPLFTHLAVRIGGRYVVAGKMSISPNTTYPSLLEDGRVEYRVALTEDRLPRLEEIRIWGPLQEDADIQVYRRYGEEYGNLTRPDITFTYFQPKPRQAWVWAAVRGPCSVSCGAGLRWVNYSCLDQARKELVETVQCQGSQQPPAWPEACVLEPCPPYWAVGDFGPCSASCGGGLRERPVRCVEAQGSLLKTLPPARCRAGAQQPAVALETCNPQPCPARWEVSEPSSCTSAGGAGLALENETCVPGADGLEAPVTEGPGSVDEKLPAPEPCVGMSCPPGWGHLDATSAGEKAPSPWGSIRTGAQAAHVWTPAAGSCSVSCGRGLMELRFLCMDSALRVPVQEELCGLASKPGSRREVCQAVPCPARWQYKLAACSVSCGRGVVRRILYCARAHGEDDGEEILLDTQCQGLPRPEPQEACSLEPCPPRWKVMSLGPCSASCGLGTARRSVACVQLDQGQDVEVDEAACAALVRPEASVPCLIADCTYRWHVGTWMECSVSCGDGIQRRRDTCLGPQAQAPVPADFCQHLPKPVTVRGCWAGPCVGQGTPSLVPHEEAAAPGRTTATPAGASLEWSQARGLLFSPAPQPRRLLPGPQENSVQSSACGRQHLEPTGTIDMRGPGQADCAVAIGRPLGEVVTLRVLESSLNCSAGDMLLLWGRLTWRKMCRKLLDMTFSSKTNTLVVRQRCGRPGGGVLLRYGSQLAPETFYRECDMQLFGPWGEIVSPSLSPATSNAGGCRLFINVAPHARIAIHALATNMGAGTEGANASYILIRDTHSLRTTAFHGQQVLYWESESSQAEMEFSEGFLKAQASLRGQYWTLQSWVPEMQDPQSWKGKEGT
Test: ADAMTS13 activity assay with fluorogenic (FRET) polypeptide substrate and diluted plasma samples
Assay type: biochemical
Conditions: for % Normal ADAMTS13 Activity: 30 Minute Incubation Time: Table 5
Description: The procedure in this example was performed substantially as described in Kokame, K., Y. Nobe, Y. Kokubo, A. Okayama, and T. Miyata. 2005. FRETS-VWF73, a first fluorogenic substrate for ADAMTS13 assay. Br. J. Haematol. 129:93-100, but using SEQ ID NO: 1 in place of the 73 amino acid substrate described therein. The FRETS-VWF73 substrate solution was dissolved in 25% dimethyl sulphoxide/water to prepare the 100 microM stock solution. The GTI FRET4 SEQ ID NO: 1 was dissolved in 100% DMSO. Both substrates were diluted to equal concentrations using ATS-13 substrate buffer (Gen-Probe GT1 Diagnostics, Inc., U.S.A., Cat#ATS-13).
Plasma samples were diluted according to the ATS-13 Direction Insert using ATS-13 specimen diluent (Gen-Probe GTI Diagnostics, Inc., U.S.A., Cat# ATS-13). The diluted plasma samples were mixed with the diluted substrate and the fluorescence was read at 0, 5, 10, 15, 20, 30, 45 minutes using a Biotek FLX800 at the appropriate excitation and emission wavelengths for each substrate.
The fluorophore-quencher pair in the SEQ ID NO: 1 polypeptide substrate is FAM-5/TQ 2^Tm (Ex 485±20; Em 528±20; AAT Bioquest, Inc. Sunnyvale, Calif. U.S.A.). The fluorophore and quencher pair of FRETS-VWF73 (Nma/Dnp) described in Kokame has been substituted with FAM-5 and TQ_2 respectively in GTI_FRET4 SEQ ID NO: 1. Furthermore, in the SEQ ID NO: 1 polypeptide the position of the fluorophore (FAM-5) and quencher (TQ_2) has been swapped relative to the position of the fluorophore and quencher of the FRETS-VWF73 construct. Therefore, for GTI_FRET4 SEQ ID NO: 1, attachment of the fluorophore (FAM-5) occurs by substituting asparagine with cystine at position 15. The quencher (TQ_2) was attached by substituting glutamine with lysine at position 4 (FIG. 2 and Table 4).
For this experiment, substrate concentration and fluorescence reader settings determined on the previous experiment are used. The specimens tested (listed in Table 3), include a panel of proficiency samples prepared for use with ATS-13 (Gen-Probe GTI Diagnostics, Inc., U.S.A., Cat# ATS-13) which included samples with normal or deficient ADAMTS13 activity levels. In addition, six Factor Assay ConTrol plasma were used (2 FACT, 2 A-FACT and 2 B-FACT, from George King Biomedical Inc., Kansas, USA). The assays for the SEQ ID NO: 1 substrate and for the prior art FRETS-VWF73 assay were performed generally as according to the procedure described in Example 1. Substrate is prepared according to the conditions used for initial testing of the substrate, which prepared the molar amount of SEQ ID NO: 1 polypeptide substrate used in the assay to be equivalent to the molar amount of FRETS-VWF73 used in the prior art. The […] assays were read at 0, 5, 10, 15, 20, 30, 45 minutes.
Testing of substrate for cleavability by ADAMTS13 is determined as is generally described in Example 1. […]

In the case of “DREKAPNLVYMVTGCPASDEIKRLPGDIQVVPIEVIGWPNAPILIQDEETLPREAPDLVLQR [GTI_FRET4]”, the “time through which the calibration curve continued to be linear” value is reported as no more than 45 min, the “trend line of the calibration curve” value is reported as “linear” and the “time at which the calculated % N ADAMTS13 activity plateaus” value (Example 1) is reported as 30 min. The “difference between Calibrator A (0% ADAMTS13 activity) and Calibrator E (100% ADAMTS13 activity), dynamic range” value (Example 1, at 30 minutes) was “approximately 34,000 RFU”, the “difference between Calibrator A and E, dynamic range” value (Example 2, at 30 minutes) was “approximately 35000 RFU” and the “% Normal ADAMTS13 Activity: 30 Minute Incubation Time” value (shortened to “% Normal ADAMTS13 Activity”) (sample 5 (ATS13-5)) was 7 % Normal. For the same sequence, the “% Normal ADAMTS13 Activity” value (sample 22 (ATS13-4)) was 21 % Normal, the “% Normal ADAMTS13 Activity” value (sample 50 (ATS13-3)) was 47 % Normal and the “% Normal ADAMTS13 Activity” value (sample 72 (ATS13-2)) was 72 % Normal. For the same sequence, the “% Normal ADAMTS13 Activity” value (sample 90 (ATS13-1)) was 92 % Normal, the “% Normal ADAMTS13 Activity” value (sample A-FACT lot 900) was 10 % Normal and the “% Normal ADAMTS13 Activity” value (sample A-FACT lot 1284) was 10 % Normal. The “% Normal ADAMTS13 Activity” value (sample B-FACT lot 1114) was 45 % Normal, the “% Normal ADAMTS13 Activity” value (sample B-FACT lot 1266) was 46 % Normal and the “% Normal ADAMTS13 Activity” value (sample BCM2) was 19 % Normal. The “% Normal ADAMTS13 Activity” value (sample BCM2 HI) was 12 % Normal, the “% Normal ADAMTS13 Activity” value (sample BCM2 mixed) was 51 % Normal and the “% Normal ADAMTS13 Activity” value (sample CNTL) was “<Calibrator A”. The “% Normal ADAMTS13 Activity” value (sample CNTL HI) was “<Calibrator A”, the “% Normal ADAMTS13 Activity” value (sample CNTL mixed) was 4 % Normal and the “% Normal ADAMTS13 Activity” value (sample Calibrator A) was 4 % Normal. The “% Normal ADAMTS13 Activity” value (sample Calibrator B) was 9 % Normal, the “% Normal ADAMTS13 Activity” value (sample Calibrator C) was 29 % Normal and the “% Normal ADAMTS13 Activity” value (sample Calibrator D) was 61 % Normal. For the same sequence, the “% Normal ADAMTS13 Activity” value (sample Calibrator E) was 110 % Normal, the “% Normal ADAMTS13 Activity” value (sample FACT lot 222e1) was 111 % Normal and the “% Normal ADAMTS13 Activity” value (sample FACT lot 1223) was 107 % Normal. The “% Normal ADAMTS13 Activity” value (sample NPP032206) was “>Calibrator E”, the “% Normal ADAMTS13 Activity” value (sample NPP032206 HI) was 9 % Normal and the “% Normal ADAMTS13 Activity” value (sample NPP032206 at 37C) was 106 % Normal. The “% Normal ADAMTS13 Activity” value (sample NPP032206 mixed) was 57 % Normal, the “% Normal ADAMTS13 Activity” value (sample Positive Control High) was 50 % Normal and the “% Normal ADAMTS13 Activity” value (sample Positive Control Low) was 14 % Normal. The “% Normal ADAMTS13 Activity” value (sample UAMS041609) was 31 % Normal, the “% Normal ADAMTS13 Activity” value (sample VF040901) was 10 % Normal and the “Increase in Fluorescence Values (X minute - 0 minute Reading)” value (from here on “Increase in Fluorescence Values”) (sample Calibrator A, 15 min) was 676 RFU. For the same sequence, the “Increase in Fluorescence Values” value (sample Calibrator A, 30 min) was 843 RFU, the “Increase in Fluorescence Values” value (sample Calibrator A, 45 min) was 921 RFU and the “Increase in Fluorescence Values” value (sample Calibrator A, 60 min) was 1,166 RFU. For the same sequence, the “Increase in Fluorescence Values” value (sample Calibrator A, 75 min) was 1,013 RFU, the “Increase in Fluorescence Values” value (sample Calibrator A, 90 min) was 959 RFU and the “% Normal ADAMTS13 Values Calculated Using GTI_FRET4 Substrate” value (sample Calibrator A, incubation 15 Minutes) was 1 % Normal. For the same sequence, the “% Normal ADAMTS13 Values Calculated Using GTI_FRET4 Substrate” value (sample Calibrator A, incubation 30 Minutes) was 1 % Normal, the “% Normal ADAMTS13 Values Calculated Using GTI_FRET4 Substrate” value (sample Calibrator A, incubation 45 Minutes) was 0 % Normal and the “% Normal ADAMTS13 Values Calculated Using GTI_FRET4 Substrate” value (sample Calibrator A, incubation 60 Minutes) was 0 % Normal. The “% Normal ADAMTS13 Values Calculated Using GTI_FRET4 Substrate” value (sample Calibrator A, incubation 75 Minutes) was 0 % Normal, the “% Normal ADAMTS13 Values Calculated Using GTI_FRET4 Substrate” value (sample Calibrator A, incubation 90 Minutes) was 0 % Normal and the “Increase in Fluorescence Values” value (sample Calibrator B, 15 min) was 1,765 RFU. The “Increase in Fluorescence Values” value (sample Calibrator B, 30 min) was 3,000 RFU, the “Increase in Fluorescence Values” value (sample Calibrator B, 45 min) was 4,164 RFU and the “Increase in Fluorescence Values” value (sample Calibrator B, 60 min) was 5,358 RFU. For the same sequence, the “Increase in Fluorescence Values” value (sample Calibrator B, 75 min) was 6,468 RFU, the “Increase in Fluorescence Values” value (sample Calibrator B, 90 min) was 7,581 RFU and the “% Normal ADAMTS13 Values Calculated Using GTI_FRET4 Substrate” value (sample Calibrator B, incubation 15 Minutes) was 7 % Normal. For the same sequence, the “% Normal ADAMTS13 Values Calculated Using GTI_FRET4 Substrate” value (sample Calibrator B, incubation 30 Minutes) was 7 % Normal, the “% Normal ADAMTS13 Values Calculated Using GTI_FRET4 Substrate” value (sample Calibrator B, incubation 45 Minutes) was 7 % Normal and the “% Normal ADAMTS13 Values Calculated Using GTI_FRET4 Substrate” value (sample Calibrator B, incubation 60 Minutes) was 7 % Normal. The “% Normal ADAMTS13 Values Calculated Using GTI_FRET4 Substrate” value (sample Calibrator B, incubation 75 Minutes) was 6 % Normal, the “% Normal ADAMTS13 Values Calculated Using GTI_FRET4 Substrate” value (sample Calibrator B, incubation 90 Minutes) was 6 % Normal and the “Increase in Fluorescence Values” value (sample Calibrator C, 15 min) was 6,178 RFU. For the same sequence, the “Increase in Fluorescence Values” value (sample Calibrator C, 30 min) was 11,701 RFU, the “Increase in Fluorescence Values” value (sample Calibrator C, 45 min) was 16,807 RFU and the “Increase in Fluorescence Values” value (sample Calibrator C, 60 min) was 21,705 RFU. The “Increase in Fluorescence Values” value (sample Calibrator C, 75 min) was 26,685 RFU, the “Increase in Fluorescence Values” value (sample Calibrator C, 90 min) was 32,209 RFU and the “% Normal ADAMTS13 Values Calculated Using GTI_FRET4 Substrate” value (sample Calibrator C, incubation 15 Minutes) was 32 % Normal. For the same sequence, the “% Normal ADAMTS13 Values Calculated Using GTI_FRET4 Substrate” value (sample Calibrator C, incubation 30 Minutes) was 33 % Normal, the “% Normal ADAMTS13 Values Calculated Using GTI_FRET4 Substrate” value (sample Calibrator C, incubation 45 Minutes) was 33 % Normal and the “% Normal ADAMTS13 Values Calculated Using GTI_FRET4 Substrate” value (sample Calibrator C, incubation 60 Minutes) was 34 % Normal. The “% Normal ADAMTS13 Values Calculated Using GTI_FRET4 Substrate” value (sample Calibrator C, incubation 75 Minutes) was 35 % Normal, the “% Normal ADAMTS13 Values Calculated Using GTI_FRET4 Substrate” value (sample Calibrator C, incubation 90 Minutes) was 36 % Normal and the “Increase in Fluorescence Values” value (sample Calibrator D, 15 min) was 10,887 RFU. The “Increase in Fluorescence Values” value (sample Calibrator D, 30 min) was 20,626 RFU, the “Increase in Fluorescence Values” value (sample Calibrator D, 45 min) was 29,206 RFU and the “Increase in Fluorescence Values” value (sample Calibrator D, 60 min) was 37,289 RFU. The “Increase in Fluorescence Values” value (sample Calibrator D, 75 min) was 44,543 RFU and the “Increase in Fluorescence Values” value (sample Calibrator D, 90 min) was 53,613 RFU.

Source: US10538802B2, “Polypeptide substrate for the detection of von Williebrand factor cleaving protease ADAMTS13” (IMMUCOR GTI DIAGNOSTICS, INC., priority 2011, dated 2020)
